The target in assay [1] is FL-MinD (E. coli) (UniProt P0AEZ3).
Assay [2] deals with MinD (E. coli) (UniProt P0AEZ3).
For assay [3] the target is unchanged. This is another data set of the same source.

Chain of ClpXP (P0A6H1 whole entry): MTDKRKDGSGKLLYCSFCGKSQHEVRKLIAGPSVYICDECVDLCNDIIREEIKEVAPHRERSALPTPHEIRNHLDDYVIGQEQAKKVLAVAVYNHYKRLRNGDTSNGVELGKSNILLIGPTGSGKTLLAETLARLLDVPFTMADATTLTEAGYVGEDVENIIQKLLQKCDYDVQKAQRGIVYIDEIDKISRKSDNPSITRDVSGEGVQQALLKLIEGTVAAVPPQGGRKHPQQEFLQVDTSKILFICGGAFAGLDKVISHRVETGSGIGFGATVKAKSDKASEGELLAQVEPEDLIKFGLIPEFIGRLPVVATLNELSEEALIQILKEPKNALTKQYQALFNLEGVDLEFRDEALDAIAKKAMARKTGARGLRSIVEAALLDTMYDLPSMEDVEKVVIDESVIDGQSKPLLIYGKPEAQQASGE
Chain of ClpXP (P0A6G7 15-207): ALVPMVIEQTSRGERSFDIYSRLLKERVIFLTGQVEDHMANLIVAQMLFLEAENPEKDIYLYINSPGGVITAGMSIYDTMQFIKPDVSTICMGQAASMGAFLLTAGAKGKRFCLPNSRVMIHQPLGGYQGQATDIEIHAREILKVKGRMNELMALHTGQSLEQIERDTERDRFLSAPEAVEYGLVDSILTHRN
Chain of MinD (E. coli) (P0AEZ3 whole entry): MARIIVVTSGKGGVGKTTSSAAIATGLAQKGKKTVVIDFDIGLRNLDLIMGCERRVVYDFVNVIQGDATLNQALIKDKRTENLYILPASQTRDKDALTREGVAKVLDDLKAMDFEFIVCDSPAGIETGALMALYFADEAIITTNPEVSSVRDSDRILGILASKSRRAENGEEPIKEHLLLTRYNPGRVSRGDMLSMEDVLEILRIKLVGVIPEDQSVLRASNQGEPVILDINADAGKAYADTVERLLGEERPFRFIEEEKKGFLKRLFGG
Chain of FL-MinD (E. coli) (P0AEZ3 whole entry): as above

For the substance “ClpXP (from UniProt P0A6H1 1-424; P0A6G7 15-207) (complex)”, the rate of degradation of fluorescent MinD (fluorescent peptides released), MinD 0-16 μM, ClpXP 0.8 μM, ATP 8 mM; rate at the plateau in assay [1] amounted to 0.08 min⁻¹. Moreover, the degradation of MinD (6 μM) by ClpX (0.75 μM), ClpP (0.9 μM) with ATP, SDS-PAGE and densitometry over time in assay [2] came to 50%. In assay [3], this substance gave a loss of full-length MinD (SDS-PAGE, Coomassie) after 3 h with MinD (6 μM), ClpX (1.0 μM), ClpP (1.2 μM) and ATP; no change when ATP or ClpP was omitted of 45.9%.
